# In the DeepSol protein solubility set:
# Assay: soluble on expression in E. coli; label from the status in PepcDB or PDB records
row,Sequence,soluble on expression in E. coli
1,NIDLDIHARENIANITNAMIELVSQDCHWLKVWFEWSASTRDEVWPLFVSTNRTNQLLVQNMFIKAIERGEVCDQHDSEHLANLFHGICYSLFVQANRFKGEAELKELVSAYLDMLCIYNREH,not soluble
2,GMSNKKLIINADDFGYTPAVTQGIIEAHKRGVVTSTTALPTSPYFLEAMESARISAPTLAIGVHLTLTLNQAKPILPREMVPSLVDEAGYFWHQSIFEEKVNLEEVYNEWDAQIISFMKSGRRPDHIDSHHNVHGKNKKLLGVALALARKYQLPLRNASRSIETKDYLELYQDVRTPDEMLYQFYDKAISTETILQLLDMVVCSEGEVFEINCHPAFIDTILQNQSGYCMPRIREVEILTSQEVKEAIEERGILLANYESLAM,soluble
3,MQEILIPLKEKNYKVFLGELPEIKLKQKALIISDSIVAGLHLPYLLERLKALEVRVCVIESGEKYKNFHSLERILNNAFEMQLNRHSLMIALGGGVISDMVGFASSIYFRGIDFINIPTTLLAQVDASVGGKTGINTPYGKNLIGSFHQPKAVYMDLAFLKTLEKREFQAGVAEIIKMAVCFDKNLVERLETKDLKDCLEEVIFQSVNIKAQVVVQDEKEQNIRAGLNYGHTFGHAIEKETDYERFLHGEAIAIGMRMANDLALSLGMLTLKEYERIENLLKKFDLIFHYKILDLQKFYERLFLDKKSENKTIKFILPKGVGAFEVASHIPKETIIKVLEKWH,soluble
4,MSFNKEDQQDEALAFLLAVATVESGDAGAFRQRVTQYMTKAYGEDTSKMTMQEQGRAEAVSRLYARADNIYHRIKVNALPRLSRGF,not soluble
5,MGSDKIHHHHHHMSDEKKSTDIDLKNLKAGGFIKERGKDLFTVRLRVPGGRMPVARLKKIAEVAEKYGQGMVHLSVRQSVELININFRDFDAVVAELGEGTQKVASCGARVRVPTACGGCEYNPNGLVDTQKSALEVDEKLFGTSTGHHKFKVGFAGCPFDCPKSATNDVGFQGAIWPVLYADECIGCGLCDKSCTEDAIVMGDDGKPRFIPENCLYCGDCLKVCPSEAWRAEKKGYTVRIGGKWGRRPLVGTLFAEFLPEEQVFDFIAAVLDWYKEKAEGQGRIRLGDVIRAEGPDALLGYLRERFPAAVVDATIPPQRIATQIGKEKRVP,not soluble
6,MSEANIIHSRYGLRCEKLDKPLNLGWGLDNSAVLHCPGELPTGWLCDALDQIFIAAPQLSAVALPWAEWREEPQALTLFGQVKSDIIHRTAFWQLPLWLSSPANRASGEMVFDAEREIYFPQRPPRPQGEVYRRYDPRIRRMLSFRIADPVSDAERFTRWMNDPRVEYFWEQSGSLEVQTAYLERQLTGKHAFPLIGCFDDRPFSYFEIYWAAEDRIGRHYSWQPFDRGLHLLVGEQQWRGAHYVQSWLRGLTHYLLLDEPRTQRTVLEPRTDNQRLFRHLEPAGYRTIKEFDFPHKRSRMVMADRHHFFTEVGL,not soluble
7,MGSDKIHHHHHHMSIKSDKWIRRMAAQHGMIEPFEPNPIRQVNGEKIVSYGTSSYGYDIRCADEFKVFTNINSTIVDPKNFDPNSFVEFKNDFCIIPPNSFALARTVEYFRIPRSVLTVCLGKSTYARCGIIVNVTPFEPEWEGYVTLEFSNTTPLPAKIYAGEGCAQVLFFESDEECEISYKDRGGKYQGQVGVTLPKI,not soluble
8,MSLAVEAVIWDFGGVFTTSPFEAFRRYETERGLPKDFIRTVNATDPDANAWARFERAEIDAAAFDGLFRQEALRLGHDVRGADVLPLLYGDLRPSVMAALKTCKAQFKVGCITNNVPTGHGPGMAQSAEKALAVGEIMALFDAVIESSKAGVRKPDPRIYQMMCELLGVAPEACIYLDDLGINCKPAAALGMTAIKVSDERQLLDDLAKATGLAFEGHHHHHH,soluble
9,HGPASRLLHRHIREQLKDLKEVSHESLVVGAVENAFQLMDEQMARERRGHQVEGGCCALVVIYLLGKVYVANAGDSRAIIVRNGEIIPMSREFTPETERQRLQLLGFLKPELLGSEFTHLEFPRRVLPKELGQRMLYRDQNMTGWAYKKIELEDLRFPLVCGEGKKARVMATIGVTRGLGDHSLKVCSSTLPIKPFLSCFPEVRVYDLTQYEHCPDDVLVLGTDGLWDVTTDCEVAATVDRVLSAYEPNDHSRYTALAQALVLGARGTPRDRGWRLPNNKLGSGDDISVFVIPLGGPGSYSVRASSPSPL,not soluble
10,MKAITLLSSGLDSVAALAIAAESLEIEMAITFDYGQRAGQREMEYSEKVCEHFGIEQRIIKLDWLGEITHTSLVNRDEEVPSLSFEDIDENSPSMITEYSAKAVWVPNRNGVMLNIAGSFAESRGCDYIVVGFNGEEAGTFPDNSRDYIQAVDNAFSYSTQNGVKVLAPLAEMGKTEIVKKALEAEAPLEYSWSCYHGGEIPCGKCESCVRRARAFKNIGIKDPLLERLGI,not soluble
11,MVDLGSDRLPVAVIGAGPVGLAAAAHLAERSVPFVVLEAGDAAATAVQAWSHIQLFSPWEFNTDPAARRLLAAAGWEEPDASALPTGGDLVKQYLQPLAELPALASHIRYGAEVTAISRLGIDRLRTADRDAAPFVLRLADGEEVLARAVIDASGTWRQPNHVGANGLPAHGEKDAAAWINHGLPDVFGADRDQHAGRHTVVVGAGHSAANTLLALAELADTAPGTTITWAIRGADPAASFGGGSDDELPARGAIGSGLKMLVETGRVTLAANFRTHAVRRLGDDPSRDQVELVSRALDGTERSVTADRVVAATGFRPDYRIVDELRLELDPIMSAPRALAPLIDPNQHSCGTVTPHGYRELAHPEPGYYAVGMKSYGRAPTFLMLTGYEQVRSIAAALAGDLEAAQSVELQLPETGVCSVTAGGEALALRLGLTKDQHEQLLHVTAKHLGTSATASDAVLSAATELGIDQTAALQLAAYAADMFDAPGAPGCLEHHHHHH,not soluble
12,RGSHMEVRNMVDYELLKKVVEAPGVSGYEFLGIRDVVIEEIKDYVDEVKVDKLGNVIAHKKGEGPKVMIAAHMDQIGLMVTHIEKNGFLRVAPIGGVDPKTLIAQRFKVWIDKGKFIYGVGASVPPHIQKPEDRKKAPDWDQIFIDIGAESKEEAEDMGVKIGTVITWDGRLERLGKHRFVSIAFDDRIAVYTILEVAKQLKDAKADVYFVATVQEEVGLRGARTSAFGIEPDYGFAIDVTIAADIPGTPEHKQVTHLGKGTAIKIMDRSVICHPTIVRWLEELAKKHEIPYQLEILLGGGTDAGAIHLTKAGVPTGALSVPARYIHSNTEVVDERDVDATVELMTKALENIHELKI,soluble
13,GEDPAIQVTGARGASVDMSTLDAVTTALDKEHLSHKSIAFENGSILVRFNDTDTQISARDVISEALGKDKIVALNLAPSTPDWLEAIGASPLKLGLDLRGGVHFLMEVDMDAAMEKLVGQQEEAFRSELRDAKIRYRAIRPSGKEGVEVLLRDEEQLAEAKRTLTKNHPDMNFVESDSNGRYALIATFTEQRLQEIRNYAVEQNITILRNRVNELGVAEPLVQRQGASRIVVELPGVQDTARAKEILGATATLEFREVDDKADLAAAANGRAPAGSEIKQDRDGRPVVLKKRVILSGASITDASSSVDEYGRPQVNISLDSEGGNKMSAFSKKNIGKLMATVFAEYKDSGRKTPEGKVILTKHEEVINQATIQSALGRNFRITGIDSAAEAHN,not soluble
14,MSKDYQSLAKLSPFELKDELIKIASSDGNRLMLNAGRGNPNFLATTPRRAFFRLGLFAAAESELSYSYMTTVGVGGLAKIDGIEGRFERYIAENRDQEGVRFLGKSLSYVRDQLGLDPAAFLHEMVDGILGCNYPVPPRMLNISEKIVRQYIIREMGADAIPSESVNLFAVEGGTAAMAYIFESLKLNGLLKAGDKVAIGMPVFTPYIEIPELAQYALEEVAINADPSLNWQYPDSELDKLKDPAIKIFFCVNPSNPPSVKMDQRSLERVRNIVAEHRPDLMILTDDVYGTFADDFQSLFAICPENTLLVYSFSKYFGATGWRLGVVAAHQQNVFDLALDKLQESEKVALDHRYRSLLPDVRSLKFIDRLVADSRAVALNHTAGLSTPQQVQMALFSLFALMDEADEYKHTLKQLIRRRETTLYRELGMPPLRDENAVDYYTLIDLQDVTAKLYGEAFSEWAVKQSSTGDMLFRIADETGIVLLPGRGFGSNRPSGRASLANLNEYEYAAIGRALRKMADELYAEYSGQAQNLKLAAALEHHHHHH,soluble
